Here are results for 1 molecule from PMC11817110.

The target of this assay is T1, recombinant human LAIR1 (leukocyte-associated immunoglobulin-like receptor 1) (human), Q6GTX8.
T1 chain: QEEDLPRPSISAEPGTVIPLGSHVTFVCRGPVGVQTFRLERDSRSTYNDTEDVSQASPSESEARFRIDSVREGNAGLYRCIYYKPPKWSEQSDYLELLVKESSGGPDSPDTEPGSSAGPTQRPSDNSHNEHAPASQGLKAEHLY

B1: polymerized type I collagen (protein)
chain 1: not shown
chain 2: GPMGLMGPRGPPGAVGAPGPQGFQGPAGEPGEPGQTGPAGARGPPGPPGKAGEDGHPGKPGRPGERGVVGPQGARGFPGTPGLPGFKGIRGHNGLDGLKGQPGAPGVKGEPGAPGENGTPGQTGARGLPGERGRVGAPGPAGARGNDGSVGPVGPAGPIGSAGPPGFPGAPGPKGELGPVGNPGPAGPAGPRGEVGLPGVSGPVGPPGNPGANGLPGAKGAAGLPGVAGAPGLPGPRGIPGPAGAAGATGARGLVGEPGPAGSKGESGNKGEPGAAGPQGPPGPSGEEGKRGPNGEVGSAGPPGPPGLRGNPGSRGLPGADGRAGVMGPPGSRGPTGPAGVRGPNGDSGRPGEPGLMGPRGFPGSPGNVGPAGKEGPAGLPGIDGRPGPIGPAGARGEPGNIGFPGPKGPTGDPGKNGEKGHAGLAGARGAPGPDGNNGAQGPPGPQGVQGGKGEQGPAGPPGFQGLPGPAGTAGEVGKPGERGIPGEFGLPGPAGPRGERGPPGESGAAGPAGPIGSRGPSGPPGPDGNKGEPGVLGAPGTAGPSGPSGLPGERGAAGIPGGKGEKGETGLRGDVGSPGRDGARGAPGAVGAPGPAGANGDRGEAGPAGPAGPAGPRGSPGERGEVGPAGPNGFAGPAGAAGQPGAKGERGTKGPKGENGPVGPTGPVGAAGPAGPNGPPGPAGSRGDGGPPGATGFPGAAGRIGPPGPSGISGPPGPPGPAGKEGLRGPRGDQGPVGRTGETGASGPPGFAGEKGPSGEPGTAGPPGTPGPQGILGAPGFLGLPGSRGERGLPGVAGSVGEPGPLGIAGPPGARGPPGAVGNPGVNGAPGEAGRDGNPGSDGPPGRDGQAGHKGERGYPGNPGPAGAAGAPGPQGAVGPAGKHGNRGEPGPAGSVGPAGAVGPRGPSGPQGIRGEKGEPGDKGPRGLPGLKGHNGLQGLPGLAGHHGDQGAPGPVGPAGPRGPAGPSGPAGKDGRTGQPGAVGPAGIRGSQGSQGPAGPPGPPGPPGPPGPS
modifications: here or on the partner: covalent bond between the protein and the PVP moiety; γ-irradiated | covalent bond between the protein and the PVP moiety; γ-irradiated
With B1, the percentage of CD14+/CD16+/CD163+/IL-10-expressing cells (M2 phenotype) in M1 cultures without vs. with 10% PTIC, flow cytometry was 19.8% and the percentage of CD16+/CD36+/CD86+/IL-1β-expressing cells (M1 phenotype) in M1 cultures without vs. with 10% PTIC, flow cytometry worked out at 1.5%.
